The text below walks through data of article PMC10003087, “VRK1 Kinase Activity Modulating Histone H4K16 Acetylation Inhibited by SIRT2 and VRK-IN-1” (International Journal of Molecular Sciences, 2023).

The target in the experiment is T1, GST-VRK1 (human, UniProt Q99986 1-396).
T1 sequence (looked up): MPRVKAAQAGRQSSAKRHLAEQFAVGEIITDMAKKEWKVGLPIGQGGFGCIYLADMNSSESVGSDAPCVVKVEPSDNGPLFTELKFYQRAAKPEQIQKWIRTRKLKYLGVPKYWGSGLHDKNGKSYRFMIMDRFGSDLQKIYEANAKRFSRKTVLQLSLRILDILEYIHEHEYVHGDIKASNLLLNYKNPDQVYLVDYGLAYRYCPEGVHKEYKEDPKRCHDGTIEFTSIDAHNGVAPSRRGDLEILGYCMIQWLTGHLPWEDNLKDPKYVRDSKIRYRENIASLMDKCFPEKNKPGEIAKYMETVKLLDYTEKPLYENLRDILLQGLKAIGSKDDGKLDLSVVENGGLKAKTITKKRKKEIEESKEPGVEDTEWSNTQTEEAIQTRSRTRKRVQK
Description: cell-based or functional assay.

B1: SIRT2-his (enzyme, human, UniProt Q8IXJ6 1-389, looked up)
chain: MAEPDPSHPLETQAGKVQEAQDSDSDSEGGAAGGEADMDFLRNLFSQTLSLGSQKERLLDELTLEGVARYMQSERCRRVICLVGAGISTSAGIPDFRSPSTGLYDNLEKYHLPYPEAIFEISYFKKHPEPFFALAKELYPGQFKPTICHYFMRLLKDKGLLLRCYTQNIDTLERIAGLEQEDLVEAHGTFYTSHCVSASCRHEYPLSWMKEKIFSEVTPKCEDCQSLVKPDIVFFGESLPARFFSCMQSDFLKVDLLLVMGTSLQVQPFASLISKAPLSTPRLLINKEKAGQSDPFLGMIMGLGGGMDFDSKKAYRDVAWLGECDQGCLALAELLGWKKELEDLVRREHASIDAQSGAGVPNPSTSASPKKSPPPAKDEARTTEREKPQ
As for B1, the “IC50 of SIRT2 for inhibition of VRK1 autophosphorylation (in vitro kinase assay, dose-dependent)” value was found to be 190 nM and the “IC50 of SIRT2 for inhibition of the phosphorylation of histone H3 by VRK1 (in vitro kinase assay, dose-dependent)” value worked out at 150 nM.
